# Reference: US20200297818A1 (ZEALAND PHARMA A S, published 2020)
# B1: Compound 25 (peptide)
# peptide: HXEGTFTSELATILDXQAARDFIAWLIEHKITD
# HELM: PEPTIDE1{H.[Aib].E.G.T.F.T.S.E.L.A.T.I.L.D.K.Q.A.A.R.D.F.I.A.W.L.I.E.H.K.I.T.D}|PEPTIDE2{[O=C(O)CCCCCCCCCCCCCCCCC(=O)[*:2]].[gGlu]}$PEPTIDE1,PEPTIDE2,16:R3-2:R2$$$V2.0
# SMILES: CC[C@H](C)[C@H](NC(=O)[C@H](Cc1ccccc1)NC(=O)[C@H](CC(=O)O)NC(=O)[C@H](CCCNC(=N)N)NC(=O)[C@H](C)NC(=O)[C@H](C)NC(=O)[C@H](CCC(N)=O)NC(=O)[C@H](CCCCNC(=O)CC[C@H](NC(=O)CCCCCCCCCCCCCCCCC(=O)O)C(=O)O)NC(=O)[C@H](CC(=O)O)NC(=O)[C@H](CC(C)C)NC(=O)[C@@H](NC(=O)[C@@H](NC(=O)[C@H](C)NC(=O)[C@H](CC(C)C)NC(=O)[C@H](CCC(=O)O)NC(=O)[C@H](CO)NC(=O)[C@@H](NC(=O)[C@H](Cc1ccccc1)NC(=O)[C@@H](NC(=O)CNC(=O)[C@H](CCC(=O)O)NC(=O)C(C)(C)NC(=O)[C@@H](N)Cc1c[nH]cn1)[C@@H](C)O)[C@@H](C)O)[C@@H](C)O)[C@@H](C)CC)C(=O)N[C@@H](C)C(=O)N[C@@H](Cc1c[nH]c2ccccc12)C(=O)N[C@@H](CC(C)C)C(=O)N[C@H](C(=O)N[C@@H](CCC(=O)O)C(=O)N[C@@H](Cc1c[nH]cn1)C(=O)N[C@@H](CCCCN)C(=O)N[C@H](C(=O)N[C@H](C(=O)N[C@@H](CC(=O)O)C(=O)O)[C@@H](C)O)[C@@H](C)CC)[C@@H](C)CC
# B2: Compound 27 (peptide)
# peptide: HXEGSFTSELATILDXQAARDFIAWLIYHKITD
# HELM: PEPTIDE1{H.[Aib].E.G.S.F.T.S.E.L.A.T.I.L.D.K.Q.A.A.R.D.F.I.A.W.L.I.Y.H.K.I.T.D}|PEPTIDE2{[O=C(O)CCCCCCCCCCCCCCCCC(=O)[*:2]].[gGlu]}$PEPTIDE1,PEPTIDE2,16:R3-2:R2$$$V2.0
# SMILES: CC[C@H](C)[C@H](NC(=O)[C@H](Cc1ccccc1)NC(=O)[C@H](CC(=O)O)NC(=O)[C@H](CCCNC(=N)N)NC(=O)[C@H](C)NC(=O)[C@H](C)NC(=O)[C@H](CCC(N)=O)NC(=O)[C@H](CCCCNC(=O)CC[C@H](NC(=O)CCCCCCCCCCCCCCCCC(=O)O)C(=O)O)NC(=O)[C@H](CC(=O)O)NC(=O)[C@H](CC(C)C)NC(=O)[C@@H](NC(=O)[C@@H](NC(=O)[C@H](C)NC(=O)[C@H](CC(C)C)NC(=O)[C@H](CCC(=O)O)NC(=O)[C@H](CO)NC(=O)[C@@H](NC(=O)[C@H](Cc1ccccc1)NC(=O)[C@H](CO)NC(=O)CNC(=O)[C@H](CCC(=O)O)NC(=O)C(C)(C)NC(=O)[C@@H](N)Cc1c[nH]cn1)[C@@H](C)O)[C@@H](C)O)[C@@H](C)CC)C(=O)N[C@@H](C)C(=O)N[C@@H](Cc1c[nH]c2ccccc12)C(=O)N[C@@H](CC(C)C)C(=O)N[C@H](C(=O)N[C@@H](Cc1ccc(O)cc1)C(=O)N[C@@H](Cc1c[nH]cn1)C(=O)N[C@@H](CCCCN)C(=O)N[C@H](C(=O)N[C@H](C(=O)N[C@@H](CC(=O)O)C(=O)O)[C@@H](C)O)[C@@H](C)CC)[C@@H](C)CC
# B3: Compound 28 (peptide)
# peptide: HXEGSFTSELATILDXQAARDFIAWLILHKITD
# HELM: PEPTIDE1{H.[Aib].E.G.S.F.T.S.E.L.A.T.I.L.D.K.Q.A.A.R.D.F.I.A.W.L.I.L.H.K.I.T.D}|PEPTIDE2{[O=C(O)CCCCCCCCCCCCCCCCC(=O)[*:2]].[gGlu]}$PEPTIDE1,PEPTIDE2,16:R3-2:R2$$$V2.0
# SMILES: CC[C@H](C)[C@H](NC(=O)[C@H](Cc1ccccc1)NC(=O)[C@H](CC(=O)O)NC(=O)[C@H](CCCNC(=N)N)NC(=O)[C@H](C)NC(=O)[C@H](C)NC(=O)[C@H](CCC(N)=O)NC(=O)[C@H](CCCCNC(=O)CC[C@H](NC(=O)CCCCCCCCCCCCCCCCC(=O)O)C(=O)O)NC(=O)[C@H](CC(=O)O)NC(=O)[C@H](CC(C)C)NC(=O)[C@@H](NC(=O)[C@@H](NC(=O)[C@H](C)NC(=O)[C@H](CC(C)C)NC(=O)[C@H](CCC(=O)O)NC(=O)[C@H](CO)NC(=O)[C@@H](NC(=O)[C@H](Cc1ccccc1)NC(=O)[C@H](CO)NC(=O)CNC(=O)[C@H](CCC(=O)O)NC(=O)C(C)(C)NC(=O)[C@@H](N)Cc1c[nH]cn1)[C@@H](C)O)[C@@H](C)O)[C@@H](C)CC)C(=O)N[C@@H](C)C(=O)N[C@@H](Cc1c[nH]c2ccccc12)C(=O)N[C@@H](CC(C)C)C(=O)N[C@H](C(=O)N[C@@H](CC(C)C)C(=O)N[C@@H](Cc1c[nH]cn1)C(=O)N[C@@H](CCCCN)C(=O)N[C@H](C(=O)N[C@H](C(=O)N[C@@H](CC(=O)O)C(=O)O)[C@@H](C)O)[C@@H](C)CC)[C@@H](C)CC
# B4: Compound 29 (peptide)
# peptide: HXEGSFTSELATILDXQAARDFIAWLIKHKITD
# HELM: PEPTIDE1{H.[Aib].E.G.S.F.T.S.E.L.A.T.I.L.D.K.Q.A.A.R.D.F.I.A.W.L.I.K.H.K.I.T.D}|PEPTIDE2{[O=C(O)CCCCCCCCCCCCCCCCC(=O)[*:2]].[gGlu]}$PEPTIDE1,PEPTIDE2,16:R3-2:R2$$$V2.0
# SMILES: CC[C@H](C)[C@H](NC(=O)[C@H](Cc1ccccc1)NC(=O)[C@H](CC(=O)O)NC(=O)[C@H](CCCNC(=N)N)NC(=O)[C@H](C)NC(=O)[C@H](C)NC(=O)[C@H](CCC(N)=O)NC(=O)[C@H](CCCCNC(=O)CC[C@H](NC(=O)CCCCCCCCCCCCCCCCC(=O)O)C(=O)O)NC(=O)[C@H](CC(=O)O)NC(=O)[C@H](CC(C)C)NC(=O)[C@@H](NC(=O)[C@@H](NC(=O)[C@H](C)NC(=O)[C@H](CC(C)C)NC(=O)[C@H](CCC(=O)O)NC(=O)[C@H](CO)NC(=O)[C@@H](NC(=O)[C@H](Cc1ccccc1)NC(=O)[C@H](CO)NC(=O)CNC(=O)[C@H](CCC(=O)O)NC(=O)C(C)(C)NC(=O)[C@@H](N)Cc1c[nH]cn1)[C@@H](C)O)[C@@H](C)O)[C@@H](C)CC)C(=O)N[C@@H](C)C(=O)N[C@@H](Cc1c[nH]c2ccccc12)C(=O)N[C@@H](CC(C)C)C(=O)N[C@H](C(=O)N[C@@H](CCCCN)C(=O)N[C@@H](Cc1c[nH]cn1)C(=O)N[C@@H](CCCCN)C(=O)N[C@H](C(=O)N[C@H](C(=O)N[C@@H](CC(=O)O)C(=O)O)[C@@H](C)O)[C@@H](C)CC)[C@@H](C)CC
# B5: Compound 26 (peptide)
# peptide: HXEGSFTSELATILDXQAARDFIAWLIHHKITD
# HELM: PEPTIDE1{H.[Aib].E.G.S.F.T.S.E.L.A.T.I.L.D.K.Q.A.A.R.D.F.I.A.W.L.I.H.H.K.I.T.D}|PEPTIDE2{[O=C(O)CCCCCCCCCCCCCCCCC(=O)[*:2]].[gGlu]}$PEPTIDE1,PEPTIDE2,16:R3-2:R2$$$V2.0
# SMILES: CC[C@H](C)[C@H](NC(=O)[C@H](Cc1ccccc1)NC(=O)[C@H](CC(=O)O)NC(=O)[C@H](CCCNC(=N)N)NC(=O)[C@H](C)NC(=O)[C@H](C)NC(=O)[C@H](CCC(N)=O)NC(=O)[C@H](CCCCNC(=O)CC[C@H](NC(=O)CCCCCCCCCCCCCCCCC(=O)O)C(=O)O)NC(=O)[C@H](CC(=O)O)NC(=O)[C@H](CC(C)C)NC(=O)[C@@H](NC(=O)[C@@H](NC(=O)[C@H](C)NC(=O)[C@H](CC(C)C)NC(=O)[C@H](CCC(=O)O)NC(=O)[C@H](CO)NC(=O)[C@@H](NC(=O)[C@H](Cc1ccccc1)NC(=O)[C@H](CO)NC(=O)CNC(=O)[C@H](CCC(=O)O)NC(=O)C(C)(C)NC(=O)[C@@H](N)Cc1c[nH]cn1)[C@@H](C)O)[C@@H](C)O)[C@@H](C)CC)C(=O)N[C@@H](C)C(=O)N[C@@H](Cc1c[nH]c2ccccc12)C(=O)N[C@@H](CC(C)C)C(=O)N[C@H](C(=O)N[C@@H](Cc1c[nH]cn1)C(=O)N[C@@H](Cc1c[nH]cn1)C(=O)N[C@@H](CCCCN)C(=O)N[C@H](C(=O)N[C@H](C(=O)N[C@@H](CC(=O)O)C(=O)O)[C@@H](C)O)[C@@H](C)CC)[C@@H](C)CC
# What was measured:
# [1] = biological target: T1, human GLP-2 receptor (hGLP2-R) (human, UniProt O95838 1-553); experiment: cell-based or functional assay
# T1 sequence (looked up): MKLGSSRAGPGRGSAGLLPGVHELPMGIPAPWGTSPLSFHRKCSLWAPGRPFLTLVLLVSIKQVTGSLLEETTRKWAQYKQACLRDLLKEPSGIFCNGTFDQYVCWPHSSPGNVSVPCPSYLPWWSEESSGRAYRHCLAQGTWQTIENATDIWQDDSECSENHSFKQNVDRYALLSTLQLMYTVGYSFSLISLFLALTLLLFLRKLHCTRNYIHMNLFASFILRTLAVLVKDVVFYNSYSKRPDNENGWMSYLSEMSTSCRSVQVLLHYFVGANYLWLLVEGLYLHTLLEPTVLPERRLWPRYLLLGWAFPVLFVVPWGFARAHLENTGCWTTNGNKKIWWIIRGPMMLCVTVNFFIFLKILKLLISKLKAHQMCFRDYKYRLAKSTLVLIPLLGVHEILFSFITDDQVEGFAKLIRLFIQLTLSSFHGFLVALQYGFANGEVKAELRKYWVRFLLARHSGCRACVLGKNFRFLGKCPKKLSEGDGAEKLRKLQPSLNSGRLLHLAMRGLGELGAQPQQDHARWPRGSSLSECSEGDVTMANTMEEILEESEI
# [2] = biological target: human glucagon-like peptide 1 receptor (GLP-1 R) (human, UniProt P43220 24-463); experiment: cell-based or functional assay
binder,measurement,setting,value
B1,EC50 GLP-2 (nM); cAMP response,[1],0.33 nM
same,EC50 GLP-1 (nM); cAMP response,[2],0.094 nM
B2,EC50 GLP-2 (nM); cAMP response,[1],1.1 nM
same,EC50 GLP-1 (nM); cAMP response,[2],0.45 nM
B3,EC50 GLP-2 (nM); cAMP response,[1],0.51 nM
same,EC50 GLP-1 (nM); cAMP response,[2],0.36 nM
B4,EC50 GLP-2 (nM); cAMP response,[1],0.29 nM
same,EC50 GLP-1 (nM); cAMP response,[2],0.31 nM
B5,EC50 GLP-2 (nM); cAMP response,[1],0.59 nM
same,EC50 GLP-1 (nM); cAMP response,[2],0.29 nM
